Results: patent publication US20180036364A1, “METHODS OF TREATING CANCER WITH A PSMA LIGAND-TUBULYSIN COMPOUND” (priority 2015, published 2018)

Experiments:
Assay type in all cases: in vivo, human
[1] = test system: metastatic, castration-resistant prostate cancer (mCRPC); experiment: Phase 1 dose-escalation study: preliminary efficacy; settings: 21 mCRPC patients
Source text: In one aspect, a clinical benefit of the patient to treatment with PSMA ligand-tubulysin compound I can be characterized utilizing Response Evaluation Criteria in Solid Tumors (RECIST) criteria. Illustratively, the criteria have been adapted from the original WHO Handbook (3), taking into account the measurement of the longest diameter for all target lesions: complete response, (CR)—the disappearance of all target lesions; partial response (PR)—at least a 30% decrease in the sum of the longest diameter of target lesions, taking as reference the baseline sum longest diameter; stable disease (SD)—neither sufficient shrinkage to qualify for partial response nor sufficient increase to qualify for progressive disease, taking as reference the smallest sum longest diameter since the treatment started; progressive disease (PD)—at least a 20% increase in the sum of the longest diameter of target lesions, taking as reference the smallest sum longest diameter recorded since the treatment started or the appearance of one or more new lesions. In another aspect overall disease response rate (ORR) is a clinical benefit and is calculated as the percent of patients who achieve a best response of CR or PR. Overall disease control rate (DCR) can be another clinical benefit and is calculated as the percent of patients who achieve a best response of CR, PR, or SD. […]

[2] = Phase 1 dose-escalation study: pharmacokinetics; settings: mCRPC patients, IV bolus
Procedure: (§1) This is a Phase 1, multicenter, open-label, non-randomized, dose-escalation oncology study in which EC1169 was dosed three times weekly (TIW), on Weeks 1 and 2 of a 3-week schedule or once weekly dosing (QW) on Weeks 1 and 2 of a 3-week schedule to assess toxicity, safety and preliminary efficacy results in patients with metastatic, castration-resistant prostate cancer (mCRPC) who have progressed on abiraterone and/or enzalutamide, and have been previously treated with a taxane except in cases of contraindication (e.g. poor performance status, age or personal choice). Patients were also dosed with 99mTc-EC0652 and underwent a SPECT/CT scan (or SPECT scan if no SPECT/CT is available) to evaluate EC0652 as an imaging agent to identify PSMA expression.
(§2) II. PSMA-Tubulysin Compound I Administration: PSMA ligand-tubulysin compound I was administered at least 4 days after PSMA Imaging Agent Ma was administered, as an intravenous bolus injection, TIW on Weeks 1 and 2 (i.e., on Days 1, 3, 5, 8, 10, 12 of a 3-week cycle) or once weekly on Weeks 1 and 2 of a 3-week schedule.

[3] = Phase 1 dose-escalation study: toxicity and safety
Procedure: as §1
Prior dose escalation methodology for both schedules was based the continuous reassessment method (CRM), in which 1 patient is assigned to 1 dose level. Subsequent patients were to be enrolled upon the first observation of DLT, at which time enrollment to that dose level would be expanded to a maximum of 6 patients. An alternative dose escalation methodology for both schedules was based upon the standard “3+3” approach, in which a minimum of 3 patients is enrolled to a given dose level. Following the first observation of a DLT, the dose level is then expanded to a maximum of 6 patients.
Patients received an injection of 0.1 mg of PSMA Imaging Agent IIa labeled with 20-25 mCi of technetium-^99m (PSMA Imaging Agent Ma). Patients were subjected to SPECT/CT imaging of the region(s) known to contain target lesion(s) approximately 3-4 hours after injection of PSMA Imaging Agent Ma (^99mTc-EC0652). For sites where SPECT/CT imaging is not available, SPECT imaging alone was carried out.
as §2
DLTs will be based on events occurring in Part A during the first cycle of therapy and the adverse events must be drug related (i.e. definitely, probably or possibly): • ≧Grade 4 hematological toxicity. • Grade 3 neutropenia with fever>38.5° C. and/or infection requiring antibiotic or antifungal treatment. • Grade 3 neutropenia persisting for >5 days. • Grade 3 thrombocytopenia with clinically significant hemorrhage requiring platelet transfusion. • ≧Grade 3 non-hematological toxicity. Grade 3 laboratory abnormalities (e.g., K or Mg) that persist for less than 48 hours are not considered DLTs. • Grade 3 nausea, vomiting lasting more than 72 hours. • A delay of >2 weeks in the scheduled administration of Compound I due to drug-related toxicity.
• Schedule #1: TIW Dosing Schedule: Inability to administer at least 4 of the 6 scheduled doses of PSMA ligand-tubulysin compound I in a cycle due to drug-related toxicity. • Schedule #2: Once Weekly Dosing Schedule: Inability to administer both scheduled doses of PSMA ligand-tubulysin compound I in a cycle due to drug-related toxicity.
PSMA imaging conjugate IIIa and PSMA ligand-tubulysin compound I was administered via IV bolus injection.

[4] = 21 mCRPC patients, both schedules

## CCCC(=O)OCN(C(=O)[C@@H](NC(=O)[C@H]1CCCCN1C)C(C)CC)[C@H](C[C@@H](OC(C)=O)c1nc(C(=O)N[C@@H](Cc2ccc(O)cc2)C[C@H](C)C(=O)NNC(=O)OCCSSC[C@H](NC(=O)[C@H](CC(=O)O)NC(=O)[C@H](CC(=O)O)NC(=O)Cc2ccc(CNC(=O)NCCCC[C@H](NC(=O)N[C@@H](CCC(=O)O)C(=O)O)C(=O)O)cc2)C(=O)O)cs1)C(C)C (some centres unmarked) [EC1169]
[1]
  patients with a 50% decrease in PSA: No patient
  patients with stable disease lasting more than 4 cycles: 3 patients
[2]
  AUC: Dose proportionate increases
  Cmax: Dose proportionate increases
[3]; [4]
  DR Grade 3-4 toxicity or serious adverse events: no
  on-study deaths: no
[3]; 21 mCRPC patients, both schedules, cycle 1
  occurrences of dose limiting toxicity: no
[3]; 21 patients evaluated for cycle 1 toxicity, both schedules, IV bolus
  patients with drug-related (DR) adverse events (AE's): 9 of 21
[3]; Schedule #1 (TIW, Weeks 1 and 2 of 3-week cycle), 5 pts
  drug-related adverse events occurring in >1 patient: No DRAE occurred in >1 Schedule #1 patient
[3]; Schedule #2 (once weekly, Weeks 1 and 2 of 3-week cycle), 16 pts
  drug-related adverse events reported in ≧2 patients: Vomiting and fatigue were the only DRAE's
[3]; mCRPC patients
  tolerability: well tolerated
